Experimental findings from patent US20220372155A1 (LYVGEN BIOPHARMA, published 2022) are described below.

First the molecules themselves.
T1: human B7H4 expressed on CHO cells (human, UniProt Q7Z7D3 25-282)
T1 construct: whole, on cells; also called VCTN1
T1 sequence (looked up): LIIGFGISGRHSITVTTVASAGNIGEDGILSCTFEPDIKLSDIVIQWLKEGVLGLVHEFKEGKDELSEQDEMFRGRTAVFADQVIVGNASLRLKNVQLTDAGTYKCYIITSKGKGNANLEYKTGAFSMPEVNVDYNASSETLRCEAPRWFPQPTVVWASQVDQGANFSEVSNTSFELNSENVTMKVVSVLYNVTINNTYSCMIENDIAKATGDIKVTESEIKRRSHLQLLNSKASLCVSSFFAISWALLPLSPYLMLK

B1: Ly361 (chimeric) (antibody, human IgG1, kappa, V domains shown)
VH: EVQLVESGGDLVKPGGSLKLSCAASGFTFSSYGMSWVRQTPDKRLEWVAAISTGGSYTYYPDSVKGRFTISRDTATNTLYLQMSTLKSEDTAMYYCTRRGATGSWFAYWGQGTLVTVSA
VL: DILMTQSPSSMSVSLGDTVSITCHASQGINNNIGWLQRKPGKSFKGLIYHGTNLEDGVPSRFSGSGSGADYSLTISSLESEDFADYYCVQYVQFPRTFGGGTKLEIKR
notes: chimeric, human IgG1 constant region; also called hybridoma 14D3
B2: Ly624 (bispecific antibody, human IgG1, kappa)
heavy: EVQLVESGGGLVQPGGSLRLSCAASGFTFTDYTMDWVRQAPGKGLEWVADVNPNSGGSIYNQRFKGRFTLSVDRSKNTLYLQMNSLRAEDTAVYYCARNLGPSFYFDYWGQGTLVTVSSASTKGPSVFPLAPSSKSTSGGTAALGCLVKDYFPEPVTVSWNSGALTSGVHTFPAVLQSSGLYSLSSVVTVPSSSLGTQTYICNVNHKPSNTKVDKKVEPKSCDKTHTCPPCPAPELLGPSVFLFPPKPKDTLMISRTPEVTCVVVDVSHEDPEVKFNWYVDGVEVHNAKTKPREEQYNSTYRVVSVLTVLHQDWLNGKEYKCKVSNKALPAPIEKTISKAKGQPREPQVYTLPPSREEMTKNQVSLTCLVKGFYPSDIAVEWESNGQPENNYKTTPPVLDSDGSFFLYSKLTVDKSRWQQGNVFSCSVMHEALHNHYTQKSLSLSPGGGGGSGGGGSGGGGSGGGGSDIQMTQSPSSLSASVGDRVTITCLASEDISNDLAWYQQKPGKAPKLLIYFVDRLLDGVPSRFSGSGSGTDFTLTISSLQPEDFATYYCQQSYKYPPTFGQGTKLEIKGGGGSGGGGSGGGGSGGGGSEVQLVESGGGLVQPGGSLRLSCAASGFTFTNYGLHWVRQAPGKGLEWVSSISPSGGVTYYRDSVKGRFTISRDNSKNTLYLQMNSLRAEDTAVYYCAKPFLGWGGANWIAHWGQGTLVTVSS
light: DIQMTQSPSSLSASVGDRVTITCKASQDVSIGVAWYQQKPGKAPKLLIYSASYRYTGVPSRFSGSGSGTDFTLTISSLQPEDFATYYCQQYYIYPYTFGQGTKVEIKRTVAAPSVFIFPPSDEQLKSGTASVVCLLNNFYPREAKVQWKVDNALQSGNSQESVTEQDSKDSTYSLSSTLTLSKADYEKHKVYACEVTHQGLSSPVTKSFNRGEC
notes: Ly591 HC (IgG1 mutated Fc)-TM559 (printed TM599) scFv VL-VH + Ly591 LC
B3: Ly825 (bispecific antibody, human IgG1, kappa)
heavy: EVQLVESGGGLVQPGGSLRLSCAASGFTFTDYTMDWVRQAPGKGLEWVADVNPNSGGSIYNQRFKGRFTLSVDRSKNTLYLQMNSLRAEDTAVYYCARNLGPSFYFDYWGQGTLVTVSSASTKGPSVFPLAPSSKSTSGGTAALGCLVKDYFPEPVTVSWNSGALTSGVHTFPAVLQSSGLYSLSSVVTVPSSSLGTQTYICNVNHKPSNTKVDKKVEPKSCDKTHTCPPCPAPELLGPSVFLFPPKPKDTLMISRTPEVTCVVVDVSHEDPEVKFNWYVDGVEVHNAKTKPREEQYNSTYRVVSVLTVLHQDWLNGKEYKCKVSNKALPAPIEKTISKAKGQPREPQVYTLPPSREEMTKNQVSLTCLVKGFYPSDIAVEWESNGQPENNYKTTPPVLDSDGSFFLYSKLTVDKSRWQQGNVFSCSVMHEALHNHYTQKSLSLSPG
light: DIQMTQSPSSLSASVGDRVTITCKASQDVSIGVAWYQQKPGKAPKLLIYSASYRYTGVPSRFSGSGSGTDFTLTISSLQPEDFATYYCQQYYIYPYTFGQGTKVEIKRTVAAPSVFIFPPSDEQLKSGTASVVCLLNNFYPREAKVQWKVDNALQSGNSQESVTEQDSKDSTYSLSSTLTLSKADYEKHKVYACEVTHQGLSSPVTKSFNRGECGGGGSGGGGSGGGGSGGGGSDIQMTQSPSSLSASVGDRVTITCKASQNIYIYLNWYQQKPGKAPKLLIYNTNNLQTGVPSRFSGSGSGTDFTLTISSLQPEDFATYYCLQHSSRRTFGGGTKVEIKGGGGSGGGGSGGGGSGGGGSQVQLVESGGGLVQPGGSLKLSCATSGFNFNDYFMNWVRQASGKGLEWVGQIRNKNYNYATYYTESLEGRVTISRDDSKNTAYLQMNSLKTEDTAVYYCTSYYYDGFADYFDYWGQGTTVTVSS
notes: Ly591 HC (IgG1 mutated Fc) + Ly591 LC-TM740 scFv VL-VH
B4: Ly827 (bispecific antibody, human IgG1, kappa)
heavy: EVQLVESGGGLVQPGGSLRLSCAASGFTFTDYTMDWVRQAPGKGLEWVADVNPNSGGSIYNQRFKGRFTLSVDRSKNTLYLQMNSLRAEDTAVYYCARNLGPSFYFDYWGQGTLVTVSSASTKGPSVFPLAPSSKSTSGGTAALGCLVKDYFPEPVTVSWNSGALTSGVHTFPAVLQSSGLYSLSSVVTVPSSSLGTQTYICNVNHKPSNTKVDKKVEPKSCDKTHTCPPCPAPELLGPSVFLFPPKPKDTLMISRTPEVTCVVVDVSHEDPEVKFNWYVDGVEVHNAKTKPREEQYNSTYRVVSVLTVLHQDWLNGKEYKCKVSNKALPAPIEKTISKAKGQPREPQVYTLPPSREEMTKNQVSLTCLVKGFYPSDIAVEWESNGQPENNYKTTPPVLDSDGSFFLYSKLTVDKSRWQQGNVFSCSVMHEALHNHYTQKSLSLSPG
light: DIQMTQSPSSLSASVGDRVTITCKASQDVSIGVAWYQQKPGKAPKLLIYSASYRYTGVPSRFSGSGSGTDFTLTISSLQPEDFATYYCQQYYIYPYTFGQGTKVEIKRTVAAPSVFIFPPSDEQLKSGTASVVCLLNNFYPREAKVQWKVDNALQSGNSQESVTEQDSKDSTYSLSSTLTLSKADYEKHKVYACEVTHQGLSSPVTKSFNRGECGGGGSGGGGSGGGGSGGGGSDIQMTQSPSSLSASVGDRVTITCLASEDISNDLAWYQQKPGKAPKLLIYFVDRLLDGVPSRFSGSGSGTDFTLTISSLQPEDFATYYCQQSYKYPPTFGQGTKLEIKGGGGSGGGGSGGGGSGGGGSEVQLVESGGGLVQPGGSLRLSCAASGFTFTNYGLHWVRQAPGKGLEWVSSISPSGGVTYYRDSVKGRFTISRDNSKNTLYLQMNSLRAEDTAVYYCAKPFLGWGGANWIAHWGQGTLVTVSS
notes: Ly591 HC (IgG1 mutated Fc) + Ly591 LC-TM559 scFv VL-VH
B5: Ly836 (bispecific antibody, human IgG1, kappa)
heavy: EVQLVESGGGLVQPGGSLRLSCAASGFTFTDYTMDWVRQAPGKGLEWVADVNPNSGGSIYNQRFKGRFTLSVDRSKNTLYLQMNSLRAEDTAVYYCARNLGPSFYFDYWGQGTLVTVSSASTKGPSVFPLAPSSKSTSGGTAALGCLVKDYFPEPVTVSWNSGALTSGVHTFPAVLQSSGLYSLSSVVTVPSSSLGTQTYICNVNHKPSNTKVDKKVEPKSCDKTHTCPPCPAPELLGPSVFLFPPKPKDTLMISRTPEVTCVVVDVSHEDPEVKFNWYVDGVEVHNAKTKPREEQYNSTYRVVSVLTVLHQDWLNGKEYKCKVSNKALPAPIEKTISKAKGQPREPQVYTLPPSREEMTKNQVSLTCLVKGFYPSDIAVEWESNGQPENNYKTTPPVLDSDGSFFLYSKLTVDKSRWQQGNVFSCSVMHEALHNHYTQKSLSLSPG
light: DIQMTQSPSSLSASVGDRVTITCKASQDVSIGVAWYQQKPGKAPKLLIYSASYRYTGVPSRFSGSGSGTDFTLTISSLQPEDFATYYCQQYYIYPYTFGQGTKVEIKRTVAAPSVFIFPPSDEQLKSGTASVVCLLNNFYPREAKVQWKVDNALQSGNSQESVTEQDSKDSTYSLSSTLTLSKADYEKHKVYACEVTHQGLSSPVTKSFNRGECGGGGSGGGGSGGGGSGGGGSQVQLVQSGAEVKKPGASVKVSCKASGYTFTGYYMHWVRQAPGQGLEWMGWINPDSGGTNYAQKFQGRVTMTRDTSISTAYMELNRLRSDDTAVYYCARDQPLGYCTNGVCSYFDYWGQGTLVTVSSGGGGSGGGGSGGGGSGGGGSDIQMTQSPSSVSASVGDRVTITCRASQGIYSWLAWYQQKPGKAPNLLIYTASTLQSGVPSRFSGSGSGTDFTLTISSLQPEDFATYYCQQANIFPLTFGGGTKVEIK
notes: Ly591 HC (IgG1 mutated Fc) + Ly591 LC-Ly253 scFv VH-VL
B6: Ly826 (bispecific antibody, human IgG1, kappa)
heavy: EVQLVESGGGLVQPGGSLRLSCAASGFTFTDYTMDWVRQAPGKGLEWVADVNPNSGGSIYNQRFKGRFTLSVDRSKNTLYLQMNSLRAEDTAVYYCARNLGPSFYFDYWGQGTLVTVSSASTKGPSVFPLAPSSKSTSGGTAALGCLVKDYFPEPVTVSWNSGALTSGVHTFPAVLQSSGLYSLSSVVTVPSSSLGTQTYICNVNHKPSNTKVDKKVEPKSCDKTHTCPPCPAPELLGPSVFLFPPKPKDTLMISRTPEVTCVVVDVSHEDPEVKFNWYVDGVEVHNAKTKPREEQYNSTYRVVSVLTVLHQDWLNGKEYKCKVSNKALPAPIEKTISKAKGQPREPQVYTLPPSREEMTKNQVSLTCLVKGFYPSDIAVEWESNGQPENNYKTTPPVLDSDGSFFLYSKLTVDKSRWQQGNVFSCSVMHEALHNHYTQKSLSLSPG
light: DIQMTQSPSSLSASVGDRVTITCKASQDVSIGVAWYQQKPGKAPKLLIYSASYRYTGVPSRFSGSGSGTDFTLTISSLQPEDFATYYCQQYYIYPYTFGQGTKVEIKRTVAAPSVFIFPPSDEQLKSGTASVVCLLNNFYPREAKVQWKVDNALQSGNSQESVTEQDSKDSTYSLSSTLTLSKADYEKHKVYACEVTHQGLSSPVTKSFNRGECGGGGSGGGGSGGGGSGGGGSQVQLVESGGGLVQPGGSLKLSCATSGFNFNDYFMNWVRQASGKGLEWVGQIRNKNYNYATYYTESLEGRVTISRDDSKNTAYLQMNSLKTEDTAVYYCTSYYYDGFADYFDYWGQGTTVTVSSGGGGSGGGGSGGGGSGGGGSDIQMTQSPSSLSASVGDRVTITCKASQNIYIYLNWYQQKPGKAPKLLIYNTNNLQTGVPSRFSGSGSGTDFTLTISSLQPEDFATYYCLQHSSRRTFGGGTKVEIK
notes: Ly591 HC (IgG1 mutated Fc) + Ly591 LC-TM740 scFv VH-VL
B7: Ly835 (bispecific antibody, human IgG1, kappa)
heavy: EVQLVESGGGLVQPGGSLRLSCAASGFTFTDYTMDWVRQAPGKGLEWVADVNPNSGGSIYNQRFKGRFTLSVDRSKNTLYLQMNSLRAEDTAVYYCARNLGPSFYFDYWGQGTLVTVSSASTKGPSVFPLAPSSKSTSGGTAALGCLVKDYFPEPVTVSWNSGALTSGVHTFPAVLQSSGLYSLSSVVTVPSSSLGTQTYICNVNHKPSNTKVDKKVEPKSCDKTHTCPPCPAPELLGPSVFLFPPKPKDTLMISRTPEVTCVVVDVSHEDPEVKFNWYVDGVEVHNAKTKPREEQYNSTYRVVSVLTVLHQDWLNGKEYKCKVSNKALPAPIEKTISKAKGQPREPQVYTLPPSREEMTKNQVSLTCLVKGFYPSDIAVEWESNGQPENNYKTTPPVLDSDGSFFLYSKLTVDKSRWQQGNVFSCSVMHEALHNHYTQKSLSLSPG
light: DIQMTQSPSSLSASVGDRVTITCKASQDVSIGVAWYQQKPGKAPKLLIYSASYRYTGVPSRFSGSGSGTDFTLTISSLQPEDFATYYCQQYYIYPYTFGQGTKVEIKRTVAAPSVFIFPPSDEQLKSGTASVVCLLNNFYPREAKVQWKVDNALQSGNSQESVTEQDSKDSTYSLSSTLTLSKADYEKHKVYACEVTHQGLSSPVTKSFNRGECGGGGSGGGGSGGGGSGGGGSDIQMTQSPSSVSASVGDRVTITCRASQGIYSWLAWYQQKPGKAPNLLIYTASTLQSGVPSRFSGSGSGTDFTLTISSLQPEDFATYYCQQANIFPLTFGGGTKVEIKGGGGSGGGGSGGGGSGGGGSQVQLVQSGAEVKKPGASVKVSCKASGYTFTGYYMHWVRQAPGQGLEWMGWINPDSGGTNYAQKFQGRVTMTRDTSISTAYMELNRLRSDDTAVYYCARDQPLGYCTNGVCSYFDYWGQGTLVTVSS
notes: Ly591 HC (IgG1 mutated Fc) + Ly591 LC-Ly253 scFv VL-VH
B8: Ly828 (bispecific antibody, human IgG1, kappa)
heavy: EVQLVESGGGLVQPGGSLRLSCAASGFTFTDYTMDWVRQAPGKGLEWVADVNPNSGGSIYNQRFKGRFTLSVDRSKNTLYLQMNSLRAEDTAVYYCARNLGPSFYFDYWGQGTLVTVSSASTKGPSVFPLAPSSKSTSGGTAALGCLVKDYFPEPVTVSWNSGALTSGVHTFPAVLQSSGLYSLSSVVTVPSSSLGTQTYICNVNHKPSNTKVDKKVEPKSCDKTHTCPPCPAPELLGPSVFLFPPKPKDTLMISRTPEVTCVVVDVSHEDPEVKFNWYVDGVEVHNAKTKPREEQYNSTYRVVSVLTVLHQDWLNGKEYKCKVSNKALPAPIEKTISKAKGQPREPQVYTLPPSREEMTKNQVSLTCLVKGFYPSDIAVEWESNGQPENNYKTTPPVLDSDGSFFLYSKLTVDKSRWQQGNVFSCSVMHEALHNHYTQKSLSLSPG
light: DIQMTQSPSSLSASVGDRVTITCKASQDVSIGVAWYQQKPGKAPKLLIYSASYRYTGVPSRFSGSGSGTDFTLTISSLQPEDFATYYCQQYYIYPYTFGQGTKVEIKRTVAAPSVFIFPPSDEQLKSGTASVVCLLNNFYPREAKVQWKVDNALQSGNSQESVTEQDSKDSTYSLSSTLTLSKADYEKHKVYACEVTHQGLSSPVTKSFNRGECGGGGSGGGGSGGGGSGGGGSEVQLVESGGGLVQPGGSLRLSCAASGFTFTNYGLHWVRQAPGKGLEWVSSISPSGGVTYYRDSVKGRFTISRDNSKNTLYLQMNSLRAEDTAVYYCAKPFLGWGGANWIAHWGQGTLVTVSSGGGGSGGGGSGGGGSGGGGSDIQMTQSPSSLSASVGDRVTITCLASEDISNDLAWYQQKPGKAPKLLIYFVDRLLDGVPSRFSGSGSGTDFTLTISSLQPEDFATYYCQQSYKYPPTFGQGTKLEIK
notes: Ly591 HC (IgG1 mutated Fc) + Ly591 LC-TM559 scFv VH-VL
B9: LP3772 (antibody, human IgG4 S228P, kappa)
heavy: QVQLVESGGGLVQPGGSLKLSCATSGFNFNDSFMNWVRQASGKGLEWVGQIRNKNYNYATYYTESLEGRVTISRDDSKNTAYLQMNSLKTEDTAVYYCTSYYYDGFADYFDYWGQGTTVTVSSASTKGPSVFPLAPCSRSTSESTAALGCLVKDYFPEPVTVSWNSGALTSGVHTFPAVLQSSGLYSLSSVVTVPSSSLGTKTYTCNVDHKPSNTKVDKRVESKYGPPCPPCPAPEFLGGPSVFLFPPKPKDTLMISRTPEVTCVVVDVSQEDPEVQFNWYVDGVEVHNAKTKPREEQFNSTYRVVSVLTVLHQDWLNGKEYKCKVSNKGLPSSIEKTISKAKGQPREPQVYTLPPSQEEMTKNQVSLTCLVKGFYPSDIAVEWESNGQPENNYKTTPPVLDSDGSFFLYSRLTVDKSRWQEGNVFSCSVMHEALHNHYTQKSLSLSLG
light: DIQMTQSPSSLSASVGDRVTITCKASQNIYIYLNWYQQKPGKAPKLLIYNTNNLQTGVPSRFSGSGSGTDFTLTISSLQPEDFATYYCLQHSSRRTFGGGTKVEIKRTVAAPSVFIFPPSDEQLKSGTASVVCLLNNFYPREAKVQWKVDNALQSGNSQESVTEQDSKDSTYSLSSTLTLSKADYEKHKVYACEVTHQGLSSPVTKSFNRGEC
notes: VH-2/IgG4, VL-1/kappa
B10: Ly623 (bispecific antibody, human IgG1, kappa)
heavy: EVQLVESGGGLVQPGGSLRLSCAASGFTFTDYTMDWVRQAPGKGLEWVADVNPNSGGSIYNQRFKGRFTLSVDRSKNTLYLQMNSLRAEDTAVYYCARNLGPSFYFDYWGQGTLVTVSSASTKGPSVFPLAPSSKSTSGGTAALGCLVKDYFPEPVTVSWNSGALTSGVHTFPAVLQSSGLYSLSSVVTVPSSSLGTQTYICNVNHKPSNTKVDKKVEPKSCDKTHTCPPCPAPELLGPSVFLFPPKPKDTLMISRTPEVTCVVVDVSHEDPEVKFNWYVDGVEVHNAKTKPREEQYNSTYRVVSVLTVLHQDWLNGKEYKCKVSNKALPAPIEKTISKAKGQPREPQVYTLPPSREEMTKNQVSLTCLVKGFYPSDIAVEWESNGQPENNYKTTPPVLDSDGSFFLYSKLTVDKSRWQQGNVFSCSVMHEALHNHYTQKSLSLSPGGGGGSGGGGSGGGGSGGGGSQVQLVESGGGLVQPGGSLKLSCATSGFNFNDYFMNWVRQASGKGLEWVGQIRNKNYNYATYYTESLEGRVTISRDDSKNTAYLQMNSLKTEDTAVYYCTSYYYDGFADYFDYWGQGTTVTVSSGGGGSGGGGSGGGGSGGGGSDIQMTQSPSSLSASVGDRVTITCKASQNIYIYLNWYQQKPGKAPKLLIYNTNNLQTGVPSRFSGSGSGTDFTLTISSLQPEDFATYYCLQHSSRRTFGGGTKVEIK
light: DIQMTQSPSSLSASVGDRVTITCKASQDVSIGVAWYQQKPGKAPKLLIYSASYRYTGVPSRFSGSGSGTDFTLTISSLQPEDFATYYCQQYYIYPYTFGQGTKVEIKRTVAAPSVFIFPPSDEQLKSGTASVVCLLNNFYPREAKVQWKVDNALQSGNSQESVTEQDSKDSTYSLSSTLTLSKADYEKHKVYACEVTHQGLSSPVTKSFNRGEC
notes: Ly591 HC (IgG1 mutated Fc)-TM740 scFv VH-VL + Ly591 LC
B11: Ly625 (bispecific antibody, human IgG1, kappa)
heavy: EVQLVESGGGLVQPGGSLRLSCAASGFTFTDYTMDWVRQAPGKGLEWVADVNPNSGGSIYNQRFKGRFTLSVDRSKNTLYLQMNSLRAEDTAVYYCARNLGPSFYFDYWGQGTLVTVSSASTKGPSVFPLAPSSKSTSGGTAALGCLVKDYFPEPVTVSWNSGALTSGVHTFPAVLQSSGLYSLSSVVTVPSSSLGTQTYICNVNHKPSNTKVDKKVEPKSCDKTHTCPPCPAPELLGPSVFLFPPKPKDTLMISRTPEVTCVVVDVSHEDPEVKFNWYVDGVEVHNAKTKPREEQYNSTYRVVSVLTVLHQDWLNGKEYKCKVSNKALPAPIEKTISKAKGQPREPQVYTLPPSREEMTKNQVSLTCLVKGFYPSDIAVEWESNGQPENNYKTTPPVLDSDGSFFLYSKLTVDKSRWQQGNVFSCSVMHEALHNHYTQKSLSLSPGGGGGSGGGGSGGGGSGGGGSEVQLVESGGGLVQPGGSLRLSCAASGFTFTNYGLHWVRQAPGKGLEWVSSISPSGGVTYYRDSVKGRFTISRDNSKNTLYLQMNSLRAEDTAVYYCAKPFLGWGGANWIAHWGQGTLVTVSSGGGGSGGGGSGGGGSGGGGSDIQMTQSPSSLSASVGDRVTITCLASEDISNDLAWYQQKPGKAPKLLIYFVDRLLDGVPSRFSGSGSGTDFTLTISSLQPEDFATYYCQQSYKYPPTFGQGTKLEIK
light: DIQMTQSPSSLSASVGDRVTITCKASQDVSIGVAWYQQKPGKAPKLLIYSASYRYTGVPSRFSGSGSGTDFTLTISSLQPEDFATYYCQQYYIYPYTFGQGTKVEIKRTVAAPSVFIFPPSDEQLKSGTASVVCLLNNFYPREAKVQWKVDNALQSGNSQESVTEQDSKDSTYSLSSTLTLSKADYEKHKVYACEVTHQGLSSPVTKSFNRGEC
notes: Ly591 HC (IgG1 mutated Fc)-TM559 (printed TM599) scFv VH-VL + Ly591 LC

The first test concerns the target T1, human B7H4 expressed on CHO cells. In words: FACS, CHO cells.
On to B1, for which the binding result is on record as “binds”.

For the next test, the target named is T2, human CD40 expressed on CHO cells (human, UniProt P25942 21-277).
T2 construct: whole, on cells; also used for the reporter cells over-expressing human CD40; also called cellular CD40; CHO-CD40 cells
T2 sequence (P25942 21-277): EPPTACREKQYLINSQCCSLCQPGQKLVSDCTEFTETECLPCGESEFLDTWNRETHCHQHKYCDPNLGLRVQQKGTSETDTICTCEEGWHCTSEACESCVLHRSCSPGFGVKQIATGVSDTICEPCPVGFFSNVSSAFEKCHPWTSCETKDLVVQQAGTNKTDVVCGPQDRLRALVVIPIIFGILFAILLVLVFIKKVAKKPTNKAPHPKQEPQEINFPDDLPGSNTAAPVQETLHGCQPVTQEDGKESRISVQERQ
In words: FACS, CHO cells.
With B2, the binding result is reported as “binds”. On to B3, for which the binding result is on record as “binds”. Same read-out and setting: the result for B4 reads “binds”; that for B5, “binds”; that for B6, “binds”. Same read-out and setting: to B7 belongs “binds”; to B8, “binds”; to B9, “binds”. B10: the binding result is given as “binds”. Still for that read-out and setting: the result for B11 reads “binds”.
